Assay results taken from patent US20100129815.

Legend:
[1] = target: T1, GST-MLC2a fusion protein, Q9QVP4
T1 chain: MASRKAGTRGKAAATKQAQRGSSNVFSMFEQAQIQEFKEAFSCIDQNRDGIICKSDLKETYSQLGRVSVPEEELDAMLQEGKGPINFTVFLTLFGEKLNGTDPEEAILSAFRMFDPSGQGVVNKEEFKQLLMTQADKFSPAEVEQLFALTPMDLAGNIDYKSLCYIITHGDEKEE

[2] = target: T2, GST-MLC2v fusion protein, P08733
T2 chain: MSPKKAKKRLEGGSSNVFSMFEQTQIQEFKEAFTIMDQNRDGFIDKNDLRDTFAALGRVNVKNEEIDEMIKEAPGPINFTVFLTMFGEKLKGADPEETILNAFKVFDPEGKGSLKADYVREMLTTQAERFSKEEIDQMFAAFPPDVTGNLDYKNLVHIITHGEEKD

B1: HA-tagged full length cardiac MLCK (protein)
chain: MYPYDVPDYASGVSEEDPEGLAPQGLPALGGACLATMDKKLNVLTEKVDRLLHFQEDVTEKLQCVCQGMDHLEQDLHRLEASRELSLAGSGSTPPTTAQAAWPEVLELVRAVRQEGAQHGARLEALFKMVVAVDRAITLVGSTFQNSKVADFIMQGTVPGRKGSLADGPEENKEQAEVAGVKPNHVLTTGGVQADASRTLWEESQKEDIPVRTVEGLPLIINTSLKGADLTQAGASLRQGVEVLGPGQVPLPTEAESRLPETASENTGATLELSVAIDRISEVLTSLKMSQGGGQETSSSKPDCWLSEEAMRLSSGPLPQPLGPLTPDSDIHSGDALPRIPINMQEMATPGELLETQSGSPIGSAEAPGLGTVLEDQIPKGARPFPPLPKRSSNNGGMSAEEEIGSGAEPMRGPSLATRDWRDETVGTTDLQQGIDPGAVSPEPGKDHAAQGPGRTEAGRLSSAAEAAIVVLDDSAAPPAPFEHRVVSIKDTLISAGYTVSQHEVLGGGRFGQVHRCTERSTGLALAAKIIKVKNVKDREDVKNEVNIMNQLSHVNLIQLYDAFESKSSFTLIMEYVDGGELFDRITDEKYHLTELDVVLFTRQICEGVHYLHQHYILHLDLKPENILCVSQTGHQIKIIDFGLARRYKPREKLKVNFGTPEFLAPEVVNYEFVSFPTDMWSVGVITYMLLSGLSPFLGETDAETMNFIVNCSWDFDADTFKGLSEEAKDFVSRLLVKEKSCRMSATQCLKHEWLSHLPAKASGSNVRLRSQQLLQKYMAQSKWKKHFHVVTAVNRLRKFPTCP
in vitro kinase assay, incorporation of 32P [1]: promotes incorporation of ^32P to GST-MLC2v and GST-MLC2a fusion proteins
Km (Lineweaver-Burk plot, 32P incorporation into GST-MLC2v; with Ca2+/calmodulin) [2]: 3.9±1.2 (with Ca^2+/calmodulin)
Km (Lineweaver-Burk plot, 32P incorporation into GST-MLC2v; with EGTA) [2]: 2.9±0.8 (with EGTA)
Km (Lineweaver-Burk plot, 32P incorporation into GST-MLC2v; without EGTA and Ca2+/calmodulin) [2]: Km value of 4.3±1.5 µM
in vitro kinase assay, incorporation of 32P [2]: promotes incorporation of ^32P to GST-MLC2v and GST-MLC2a fusion proteins
